Assays:
Jak2 = Jak2 (UniProt O60674); assay: phosphorylation enrichment, bacterial display (enrichment ratio); higher = better substrate or ligand; peptides without Tyr show the background
Fyn = Fyn (UniProt P06241); assay: as above
c-Src = assay: as above
MERTK = MERTK (UniProt Q12866); assay: as above
Fes = Fes (UniProt P07332); assay: as above
EPHB1 = EPHB1 (UniProt P54762); assay: as above
Fer (mouse) = assay: as above
FGFR1 = FGFR1 (UniProt P11362); assay: as above
FGFR3 = FGFR3 (UniProt P22607); assay: as above
c-Abl (mouse) = assay: as above
AncSZ = assay: as above
Hck = Hck (UniProt P08631); assay: as above
EPHB2 = EPHB2 (UniProt P29323); assay: as above
Grb2 SH2 = Grb2 SH2 (UniProt P62993); assay: SH2 binding enrichment of the phosphorylated peptide, bacterial display (enrichment ratio); higher = better substrate or ligand; peptides without Tyr show the background
SHP2-C SH2 = assay: as above
c-Src SH2 = assay: as above
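Wherever SH2 binding enrichment of the phosphorylated peptide, bacterial display is given: peptide library displayed on the E. coli surface as eCPX fusions, selected cells deep-sequenced, score is each peptide's frequency after selection divided by its frequency in the input.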
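Wherever phosphorylation enrichment, bacterial display is given: 11-residue human phosphosite peptides and single-mutation variants displayed on the E. coli surface, counted by deep sequencing, each peptide's frequency after selection divided by its frequency in the unselected input library; frequency after pTyr selection over input frequency; kinase dosed for 20-30% of maximal phosphorylation in three min.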

Sequence of FGFR1 (P11362 whole entry, looked up): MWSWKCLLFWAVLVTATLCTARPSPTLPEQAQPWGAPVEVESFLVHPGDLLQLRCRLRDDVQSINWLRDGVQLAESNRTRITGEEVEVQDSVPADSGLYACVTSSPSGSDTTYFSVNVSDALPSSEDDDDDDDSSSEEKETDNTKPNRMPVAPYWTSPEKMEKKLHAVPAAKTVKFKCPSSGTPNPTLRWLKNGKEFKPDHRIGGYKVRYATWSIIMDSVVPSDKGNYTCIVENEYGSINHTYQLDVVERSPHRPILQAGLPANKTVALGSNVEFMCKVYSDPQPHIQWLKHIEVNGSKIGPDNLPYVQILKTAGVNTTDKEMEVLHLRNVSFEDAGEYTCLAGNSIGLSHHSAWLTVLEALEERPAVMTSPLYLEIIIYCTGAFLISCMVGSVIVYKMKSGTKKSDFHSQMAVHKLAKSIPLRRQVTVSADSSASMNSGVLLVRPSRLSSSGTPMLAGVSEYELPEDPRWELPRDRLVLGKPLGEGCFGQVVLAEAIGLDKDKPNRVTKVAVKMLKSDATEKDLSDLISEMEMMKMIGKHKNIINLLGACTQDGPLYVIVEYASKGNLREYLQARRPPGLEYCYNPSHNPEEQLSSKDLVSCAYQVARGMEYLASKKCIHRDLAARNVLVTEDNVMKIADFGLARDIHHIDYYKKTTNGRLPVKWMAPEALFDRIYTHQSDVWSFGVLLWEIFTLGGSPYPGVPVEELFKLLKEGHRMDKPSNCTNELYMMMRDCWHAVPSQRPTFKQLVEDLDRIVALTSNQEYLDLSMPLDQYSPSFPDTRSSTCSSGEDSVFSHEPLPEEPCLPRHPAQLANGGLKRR
Sequence of EPHB1 (P54762 whole entry, looked up): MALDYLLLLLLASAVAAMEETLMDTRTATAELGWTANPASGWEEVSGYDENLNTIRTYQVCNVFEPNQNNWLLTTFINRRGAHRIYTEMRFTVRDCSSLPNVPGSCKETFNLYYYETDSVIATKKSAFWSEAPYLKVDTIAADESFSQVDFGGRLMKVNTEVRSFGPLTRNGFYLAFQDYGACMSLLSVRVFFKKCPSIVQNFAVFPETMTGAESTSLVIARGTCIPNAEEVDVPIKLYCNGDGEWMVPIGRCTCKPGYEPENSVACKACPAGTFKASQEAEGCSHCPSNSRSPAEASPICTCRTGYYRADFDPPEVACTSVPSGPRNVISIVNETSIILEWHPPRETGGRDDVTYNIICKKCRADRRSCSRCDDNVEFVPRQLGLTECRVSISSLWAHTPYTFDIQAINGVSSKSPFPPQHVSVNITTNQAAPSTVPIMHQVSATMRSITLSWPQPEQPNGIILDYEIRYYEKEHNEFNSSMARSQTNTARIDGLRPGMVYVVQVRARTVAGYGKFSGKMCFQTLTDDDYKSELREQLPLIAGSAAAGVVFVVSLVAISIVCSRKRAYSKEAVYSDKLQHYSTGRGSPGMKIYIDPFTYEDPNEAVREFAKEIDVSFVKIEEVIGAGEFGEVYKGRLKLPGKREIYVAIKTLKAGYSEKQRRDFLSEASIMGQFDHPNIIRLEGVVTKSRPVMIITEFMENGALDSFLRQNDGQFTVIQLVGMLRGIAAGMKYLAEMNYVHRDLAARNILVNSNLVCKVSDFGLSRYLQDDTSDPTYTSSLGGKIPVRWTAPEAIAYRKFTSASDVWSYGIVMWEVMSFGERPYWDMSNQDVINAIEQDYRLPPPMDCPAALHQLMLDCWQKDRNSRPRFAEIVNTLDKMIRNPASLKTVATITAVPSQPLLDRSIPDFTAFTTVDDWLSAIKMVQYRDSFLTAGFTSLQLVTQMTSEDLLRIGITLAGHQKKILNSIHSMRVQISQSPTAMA
Sequence of Fes (P07332 whole entry, looked up): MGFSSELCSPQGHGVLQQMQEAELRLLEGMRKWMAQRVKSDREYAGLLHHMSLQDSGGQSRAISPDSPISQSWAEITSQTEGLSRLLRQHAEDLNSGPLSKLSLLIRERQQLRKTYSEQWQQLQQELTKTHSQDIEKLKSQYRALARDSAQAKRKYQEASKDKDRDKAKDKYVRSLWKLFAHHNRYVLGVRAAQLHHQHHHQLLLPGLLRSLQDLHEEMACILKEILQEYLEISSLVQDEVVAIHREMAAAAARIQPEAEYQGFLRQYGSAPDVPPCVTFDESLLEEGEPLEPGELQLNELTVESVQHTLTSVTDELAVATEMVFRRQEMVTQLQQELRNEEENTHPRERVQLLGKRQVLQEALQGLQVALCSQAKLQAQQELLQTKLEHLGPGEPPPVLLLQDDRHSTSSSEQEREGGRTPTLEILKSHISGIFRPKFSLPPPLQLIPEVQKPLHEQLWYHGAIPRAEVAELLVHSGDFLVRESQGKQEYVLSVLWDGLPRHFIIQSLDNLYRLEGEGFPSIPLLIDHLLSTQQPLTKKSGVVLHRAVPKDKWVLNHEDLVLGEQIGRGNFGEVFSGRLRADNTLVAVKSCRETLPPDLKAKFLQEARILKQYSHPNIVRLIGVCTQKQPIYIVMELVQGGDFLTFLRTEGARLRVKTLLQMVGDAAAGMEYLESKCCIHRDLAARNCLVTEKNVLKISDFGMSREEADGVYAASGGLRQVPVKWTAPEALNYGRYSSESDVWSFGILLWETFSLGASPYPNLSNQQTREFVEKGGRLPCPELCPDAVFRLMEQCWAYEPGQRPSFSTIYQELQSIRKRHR
Sequence of Grb2 SH2 (P62993 whole entry, looked up): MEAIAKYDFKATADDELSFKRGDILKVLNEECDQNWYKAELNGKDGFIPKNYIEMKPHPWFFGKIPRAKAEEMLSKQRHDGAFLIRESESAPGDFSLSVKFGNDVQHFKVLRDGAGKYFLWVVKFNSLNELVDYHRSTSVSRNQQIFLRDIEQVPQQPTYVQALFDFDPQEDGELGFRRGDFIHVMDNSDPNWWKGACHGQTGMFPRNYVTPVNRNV
Sequence of MERTK (Q12866 whole entry, looked up): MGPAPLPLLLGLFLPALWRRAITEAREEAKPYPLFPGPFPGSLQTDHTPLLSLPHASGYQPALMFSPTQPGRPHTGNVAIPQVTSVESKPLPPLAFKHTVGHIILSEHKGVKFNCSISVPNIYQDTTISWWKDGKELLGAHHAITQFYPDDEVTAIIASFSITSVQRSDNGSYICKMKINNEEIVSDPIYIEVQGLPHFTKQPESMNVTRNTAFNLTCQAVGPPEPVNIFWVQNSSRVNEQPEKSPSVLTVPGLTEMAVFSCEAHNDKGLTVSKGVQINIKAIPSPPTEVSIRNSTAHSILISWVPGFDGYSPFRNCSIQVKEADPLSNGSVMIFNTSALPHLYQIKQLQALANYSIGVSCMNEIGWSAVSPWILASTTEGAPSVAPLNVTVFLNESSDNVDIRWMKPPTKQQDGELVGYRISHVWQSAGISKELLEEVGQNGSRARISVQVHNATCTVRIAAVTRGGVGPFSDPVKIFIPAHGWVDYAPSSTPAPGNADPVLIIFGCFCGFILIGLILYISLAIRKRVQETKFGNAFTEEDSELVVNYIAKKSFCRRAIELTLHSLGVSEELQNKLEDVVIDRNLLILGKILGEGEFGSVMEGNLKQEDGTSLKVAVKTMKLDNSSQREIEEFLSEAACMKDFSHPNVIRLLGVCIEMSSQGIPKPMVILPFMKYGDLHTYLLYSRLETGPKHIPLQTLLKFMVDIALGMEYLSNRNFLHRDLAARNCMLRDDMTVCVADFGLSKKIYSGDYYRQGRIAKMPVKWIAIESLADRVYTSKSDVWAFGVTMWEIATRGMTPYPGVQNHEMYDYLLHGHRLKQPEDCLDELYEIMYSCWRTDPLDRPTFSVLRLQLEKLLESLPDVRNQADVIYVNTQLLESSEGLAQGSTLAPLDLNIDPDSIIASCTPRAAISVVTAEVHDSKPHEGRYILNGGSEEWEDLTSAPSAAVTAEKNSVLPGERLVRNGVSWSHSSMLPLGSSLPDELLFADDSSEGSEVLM
Sequence of FGFR3 (P22607 whole entry, looked up): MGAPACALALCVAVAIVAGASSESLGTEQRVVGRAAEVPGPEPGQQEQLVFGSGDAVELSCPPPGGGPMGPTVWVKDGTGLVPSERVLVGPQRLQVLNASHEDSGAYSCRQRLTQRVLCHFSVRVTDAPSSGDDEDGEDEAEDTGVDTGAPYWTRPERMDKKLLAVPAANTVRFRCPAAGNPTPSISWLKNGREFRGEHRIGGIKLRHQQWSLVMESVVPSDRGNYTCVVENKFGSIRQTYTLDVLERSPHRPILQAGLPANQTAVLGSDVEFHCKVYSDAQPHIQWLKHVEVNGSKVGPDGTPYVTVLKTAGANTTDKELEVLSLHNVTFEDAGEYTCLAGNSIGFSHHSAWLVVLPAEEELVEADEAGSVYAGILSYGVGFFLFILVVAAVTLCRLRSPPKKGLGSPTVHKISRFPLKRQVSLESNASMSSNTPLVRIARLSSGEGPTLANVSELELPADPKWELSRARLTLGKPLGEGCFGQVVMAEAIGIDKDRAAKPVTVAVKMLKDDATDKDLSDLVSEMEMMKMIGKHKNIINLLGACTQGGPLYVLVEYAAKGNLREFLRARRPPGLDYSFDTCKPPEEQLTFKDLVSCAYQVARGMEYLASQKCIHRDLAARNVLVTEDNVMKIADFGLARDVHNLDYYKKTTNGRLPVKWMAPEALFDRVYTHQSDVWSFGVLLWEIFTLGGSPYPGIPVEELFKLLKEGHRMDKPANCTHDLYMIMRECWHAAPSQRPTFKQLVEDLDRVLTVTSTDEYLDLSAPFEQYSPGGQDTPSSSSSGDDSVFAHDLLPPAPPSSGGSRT

KNNSIYVLANI [VNN1_Y134_V136L]
phosphorylation enrichment (Jak2): 1.16 | phosphorylation enrichment (Fyn): 1.14 | phosphorylation enrichment (c-Src): 1.58 | phosphorylation enrichment (MERTK): 1.95 | phosphorylation enrichment (Fes): 1.24 | phosphorylation enrichment (EPHB1): 0.793 | phosphorylation enrichment (Fer (mouse)): 2.7 | phosphorylation enrichment (FGFR1): 0.947 | phosphorylation enrichment (FGFR3): 1.08 | phosphorylation enrichment (c-Abl (mouse)): 1.05 | phosphorylation enrichment (AncSZ): 1.17 | phosphorylation enrichment (Hck): 1.15 | phosphorylation enrichment (EPHB2): 0.668 | SH2 binding enrichment (Grb2 SH2): 1.14 | SH2 binding enrichment (SHP2-C SH2): 1.67 | SH2 binding enrichment (c-Src SH2): 0.796

EDGCIYPGTIA [SMN1_Y109_A111G]
phosphorylation enrichment (Jak2): 1.04 | phosphorylation enrichment (Fyn): 0.595 | phosphorylation enrichment (c-Src): 0.567 | phosphorylation enrichment (MERTK): 0.529 | phosphorylation enrichment (Fes): 1.25 | phosphorylation enrichment (EPHB1): 0.7 | phosphorylation enrichment (Fer (mouse)): 0.555 | phosphorylation enrichment (FGFR1): 0.553 | phosphorylation enrichment (FGFR3): 0.856 | phosphorylation enrichment (c-Abl (mouse)): 0.868 | phosphorylation enrichment (AncSZ): 0.947 | phosphorylation enrichment (Hck): 0.552 | phosphorylation enrichment (EPHB2): 0.613 | SH2 binding enrichment (Grb2 SH2): 0.915 | SH2 binding enrichment (SHP2-C SH2): 0.699 | SH2 binding enrichment (c-Src SH2): 0.619

AAVLNYKAWRD [GRIN2A_Y737_G740W]
phosphorylation enrichment (Jak2): 0.646 | phosphorylation enrichment (Fyn): 0.35 | phosphorylation enrichment (c-Src): 0.396 | phosphorylation enrichment (MERTK): 0.386 | phosphorylation enrichment (Fes): 0.656 | phosphorylation enrichment (EPHB1): 0.408 | phosphorylation enrichment (Fer (mouse)): 0.338 | phosphorylation enrichment (FGFR1): 0.534 | phosphorylation enrichment (FGFR3): 0.462 | phosphorylation enrichment (c-Abl (mouse)): 0.808 | phosphorylation enrichment (AncSZ): 0.839 | phosphorylation enrichment (Hck): 0.436 | phosphorylation enrichment (EPHB2): 0.276 | SH2 binding enrichment (Grb2 SH2): 1.35 | SH2 binding enrichment (SHP2-C SH2): 0.915 | SH2 binding enrichment (c-Src SH2): 0.481

SNNYIYKTLGV [FAM83B_Y639]
phosphorylation enrichment (Jak2): 0.46 | phosphorylation enrichment (Fyn): 0.467 | phosphorylation enrichment (c-Src): 0.476 | phosphorylation enrichment (MERTK): 0.357 | phosphorylation enrichment (Fes): 0.58 | phosphorylation enrichment (EPHB1): 0.48 | phosphorylation enrichment (Fer (mouse)): 0.354 | phosphorylation enrichment (FGFR1): 0.484 | phosphorylation enrichment (FGFR3): 0.546 | phosphorylation enrichment (c-Abl (mouse)): 0.494 | phosphorylation enrichment (AncSZ): 0.523 | phosphorylation enrichment (Hck): 0.549 | phosphorylation enrichment (EPHB2): 0.328 | SH2 binding enrichment (Grb2 SH2): 1.01 | SH2 binding enrichment (SHP2-C SH2): 0.968 | SH2 binding enrichment (c-Src SH2): 0.393

YQCKHYACIRQ [TIMP3_Y182_S179C]
phosphorylation enrichment (Jak2): 0.55 | phosphorylation enrichment (Fyn): 0.347 | phosphorylation enrichment (c-Src): 0.362 | phosphorylation enrichment (MERTK): 0.46 | phosphorylation enrichment (Fes): 0.662 | phosphorylation enrichment (EPHB1): 0.371 | phosphorylation enrichment (Fer (mouse)): 0.399 | phosphorylation enrichment (FGFR1): 0.336 | phosphorylation enrichment (FGFR3): 0.455 | phosphorylation enrichment (c-Abl (mouse)): 0.514 | phosphorylation enrichment (AncSZ): 0.601 | phosphorylation enrichment (Hck): 0.275 | phosphorylation enrichment (EPHB2): 0.363 | SH2 binding enrichment (Grb2 SH2): 1.74 | SH2 binding enrichment (SHP2-C SH2): 4.01 | SH2 binding enrichment (c-Src SH2): 2.39

FSCLPCGRLAY [SLC52A2_Y305_Y305C]
phosphorylation enrichment (Jak2): 0.724 | phosphorylation enrichment (Fyn): 0.425 | phosphorylation enrichment (c-Src): 0.45 | phosphorylation enrichment (MERTK): 0.688 | phosphorylation enrichment (Fes): 0.772 | phosphorylation enrichment (EPHB1): 0.431 | phosphorylation enrichment (Fer (mouse)): 0.351 | phosphorylation enrichment (FGFR1): 0.481 | phosphorylation enrichment (FGFR3): 0.54 | phosphorylation enrichment (c-Abl (mouse)): 0.584 | phosphorylation enrichment (AncSZ): 0.832 | phosphorylation enrichment (Hck): 0.431 | phosphorylation enrichment (EPHB2): 0.485 | SH2 binding enrichment (Grb2 SH2): 1.46 | SH2 binding enrichment (SHP2-C SH2): 1.34 | SH2 binding enrichment (c-Src SH2): 1.54

PKEQRYSFLQN [GH1_Y68_K67R]
phosphorylation enrichment (Jak2): 1.62 | phosphorylation enrichment (Fyn): 0.605 | phosphorylation enrichment (c-Src): 0.631 | phosphorylation enrichment (MERTK): 6.49 | phosphorylation enrichment (Fes): 1.44 | phosphorylation enrichment (EPHB1): 0.75 | phosphorylation enrichment (Fer (mouse)): 0.902 | phosphorylation enrichment (FGFR1): 1.12 | phosphorylation enrichment (FGFR3): 0.617 | phosphorylation enrichment (c-Abl (mouse)): 0.744 | phosphorylation enrichment (AncSZ): 1.27 | phosphorylation enrichment (Hck): 0.904 | phosphorylation enrichment (EPHB2): 0.901 | SH2 binding enrichment (Grb2 SH2): 1.04 | SH2 binding enrichment (SHP2-C SH2): 1.11 | SH2 binding enrichment (c-Src SH2): 2.17

SEDANYKRVSC [TTC3_Y1288]
phosphorylation enrichment (Jak2): 1.06 | phosphorylation enrichment (Fyn): 0.612 | phosphorylation enrichment (c-Src): 0.442 | phosphorylation enrichment (MERTK): 0.449 | phosphorylation enrichment (Fes): 1.02 | phosphorylation enrichment (EPHB1): 0.558 | phosphorylation enrichment (Fer (mouse)): 0.491 | phosphorylation enrichment (FGFR1): 0.418 | phosphorylation enrichment (FGFR3): 0.696 | phosphorylation enrichment (c-Abl (mouse)): 0.82 | phosphorylation enrichment (AncSZ): 0.886 | phosphorylation enrichment (Hck): 0.532 | phosphorylation enrichment (EPHB2): 0.55 | SH2 binding enrichment (Grb2 SH2): 1.15 | SH2 binding enrichment (SHP2-C SH2): 0.646 | SH2 binding enrichment (c-Src SH2): 0.594

DRLASNLDKVR [KRT10_Y160_Y160N]
phosphorylation enrichment (Jak2): 0.488 | phosphorylation enrichment (Fyn): 0.382 | phosphorylation enrichment (c-Src): 0.391 | phosphorylation enrichment (MERTK): 0.394 | phosphorylation enrichment (Fes): 0.547 | phosphorylation enrichment (EPHB1): 0.326 | phosphorylation enrichment (Fer (mouse)): 0.339 | phosphorylation enrichment (FGFR1): 0.491 | phosphorylation enrichment (FGFR3): 0.348 | phosphorylation enrichment (c-Abl (mouse)): 0.481 | phosphorylation enrichment (AncSZ): 0.556 | phosphorylation enrichment (Hck): 0.33 | phosphorylation enrichment (EPHB2): 0.307 | SH2 binding enrichment (Grb2 SH2): 0.883 | SH2 binding enrichment (SHP2-C SH2): 0.917 | SH2 binding enrichment (c-Src SH2): 0.565

ILTLKYPIKHG [ACTA1_Y71_E74K]
phosphorylation enrichment (Jak2): 0.558 | phosphorylation enrichment (Fyn): 0.431 | phosphorylation enrichment (c-Src): 0.341 | phosphorylation enrichment (MERTK): 0.344 | phosphorylation enrichment (Fes): 0.588 | phosphorylation enrichment (EPHB1): 0.426 | phosphorylation enrichment (Fer (mouse)): 0.413 | phosphorylation enrichment (FGFR1): 0.449 | phosphorylation enrichment (FGFR3): 0.497 | phosphorylation enrichment (c-Abl (mouse)): 0.367 | phosphorylation enrichment (AncSZ): 0.523 | phosphorylation enrichment (Hck): 0.349 | phosphorylation enrichment (EPHB2): 0.518 | SH2 binding enrichment (Grb2 SH2): 1.12 | SH2 binding enrichment (SHP2-C SH2): 1.46 | SH2 binding enrichment (c-Src SH2): 0.787

PLQNTYNYNVL [SLC4A1_Y553_K551N]
phosphorylation enrichment (Jak2): 0.67 | phosphorylation enrichment (Fyn): 0.65 | phosphorylation enrichment (c-Src): 0.745 | phosphorylation enrichment (MERTK): 0.737 | phosphorylation enrichment (Fes): 0.894 | phosphorylation enrichment (EPHB1): 0.939 | phosphorylation enrichment (Fer (mouse)): 0.233 | phosphorylation enrichment (FGFR1): 0.37 | phosphorylation enrichment (FGFR3): 0.545 | phosphorylation enrichment (c-Abl (mouse)): 1.51 | phosphorylation enrichment (AncSZ): 0.634 | phosphorylation enrichment (Hck): 0.6 | phosphorylation enrichment (EPHB2): 1.6 | SH2 binding enrichment (Grb2 SH2): 0.81 | SH2 binding enrichment (SHP2-C SH2): 0.865 | SH2 binding enrichment (c-Src SH2): 2.12

SDFSSYARTSI [TERT_Y949_YF]
phosphorylation enrichment (Jak2): 0.798 | phosphorylation enrichment (Fyn): 0.488 | phosphorylation enrichment (c-Src): 0.506 | phosphorylation enrichment (MERTK): 0.477 | phosphorylation enrichment (Fes): 0.834 | phosphorylation enrichment (EPHB1): 0.546 | phosphorylation enrichment (Fer (mouse)): 0.56 | phosphorylation enrichment (FGFR1): 0.514 | phosphorylation enrichment (FGFR3): 0.613 | phosphorylation enrichment (c-Abl (mouse)): 0.55 | phosphorylation enrichment (AncSZ): 0.877 | phosphorylation enrichment (Hck): 0.453 | phosphorylation enrichment (EPHB2): 0.625 | SH2 binding enrichment (Grb2 SH2): 0.7 | SH2 binding enrichment (SHP2-C SH2): 0.805 | SH2 binding enrichment (c-Src SH2): 0.586

— the supplement of paper PMC10065799, “High-throughput profiling of sequence recognition by tyrosine kinases and SH2 domains using bacterial peptide display” (eLife, 2023)
